Measured values reported in publication PMC2615004.

Target: photosynthetic reaction center from Rhodobacter sphaeroides, native (strain R26) (Rhodobacter sphaeroides) (UniProt P0C0Y8)
Experiment: flash absorption spectroscopy

dH: 54 meV
Substance: cytochrome c2 from Rhodobacter sphaeroides (from UniProt P0C0X8 1-124) (natural protein)
